According to PMC6143433 (Biochemistry, 2018):

Biological target: the molecule itself
Assay: SEC

B1: MftE from M. ulcerans (enzyme, UniProt A0PM51 1-250, looked up)
chain: MNSSYHRRVPVLGELGTSTSSQLPSTWPSILIPLGSTEQHGPHLPLDTDTRIATAVGRAVATRMHGRLTQCQPGWLLAPPIAYGASGEHQSFAGTISIGAEALRVLLLEYGRSAACWADRLVFVNGHGGNVEALRGAVRQLRAEGRDAGWSACGSAGGDAHAGHTETSVLLHISPEVVLTDRLSAGNAAPLAELLPSLRRGGVAAVSPIGVLGDPTTATAVEGRRIFAEMVDDCVSRIARWTPGPDGMLT
B1 was tested, and the “stoichiometry N” value was 8.
